According to patent publication US20210063414A1, “METHODS FOR PREVENTING AND/OR TREATING BONE LOSS CONDITIONS BY MODULATING IRISIN” (Dana-Farber Cancer Institute, Inc., priority 2018, published 2021):

How the values were obtained:
inguinal fat = assay: Irisin injection in mice: Ucp1/Dio2 mRNA and Ucp1 protein in inguinal fat; type: in vivo
Method: FIG. 18A-FIG. 18B show mRNA and protein levels of indicated genes. 1 mg/kg irisin was injected to 8-week old mice every other day for 6 days. mRNA levels of indicated genes in inguinal fat were analyzed by qRT-PCR. Cyclophilin was used for housekeeping gene (FIG. 18A). Inguinal fats were also lysed to detect the indicated protein level using immunoblot analysis (FIG. 18B). FIGS. 18C and 18D show mRNA and protein levels of indicated genes. Mice were treated and analyzed as (A-B) with addition of coinjection of […] control RGD peptide or cyclo RGDyK (cRGDyK). mRNA levels of indicated genes in inguinal fat were analyzed by qRT-PCR. Cyclophilin was used for house-keeping gene (FIG. 18C). Inguinal fats were also lysed to detect the indicated protein level using immunoblot analysis (FIG. 18D). […] Ucp1 mRNA level was analyzed by qRT-PCR. […]
RNA was extracted from cultured cells or frozen tissues using TRIzol® (Thermo Fischer Scientific) and purified with RNeasy® mini kit (QIAGEN 74106). […] To perform qRT-PCR analysis, normalized RNA was reverse transcribed using a high-capacity cDNA reverse-transcription kit (Applied Biosystems™). cDNA was analyzed by qRT-PCR with indicated primers. Relative mRNA levels were calculated using the comparative CT method and normalized to cyclophilin mRNA. […]

integrin α11/β1 = molecular target: T1, integrin α11/β1 (Homo sapiens, UniProt P05556+Q9UKX5); assay: FAK phosphorylation in HEK293T cells with forced expression of integrin α11/β1; type: cell-based
T1 construct: expressed in transfected cells; host or cells: HEK293T
T1 sequence (Q9UKX5 23-1188): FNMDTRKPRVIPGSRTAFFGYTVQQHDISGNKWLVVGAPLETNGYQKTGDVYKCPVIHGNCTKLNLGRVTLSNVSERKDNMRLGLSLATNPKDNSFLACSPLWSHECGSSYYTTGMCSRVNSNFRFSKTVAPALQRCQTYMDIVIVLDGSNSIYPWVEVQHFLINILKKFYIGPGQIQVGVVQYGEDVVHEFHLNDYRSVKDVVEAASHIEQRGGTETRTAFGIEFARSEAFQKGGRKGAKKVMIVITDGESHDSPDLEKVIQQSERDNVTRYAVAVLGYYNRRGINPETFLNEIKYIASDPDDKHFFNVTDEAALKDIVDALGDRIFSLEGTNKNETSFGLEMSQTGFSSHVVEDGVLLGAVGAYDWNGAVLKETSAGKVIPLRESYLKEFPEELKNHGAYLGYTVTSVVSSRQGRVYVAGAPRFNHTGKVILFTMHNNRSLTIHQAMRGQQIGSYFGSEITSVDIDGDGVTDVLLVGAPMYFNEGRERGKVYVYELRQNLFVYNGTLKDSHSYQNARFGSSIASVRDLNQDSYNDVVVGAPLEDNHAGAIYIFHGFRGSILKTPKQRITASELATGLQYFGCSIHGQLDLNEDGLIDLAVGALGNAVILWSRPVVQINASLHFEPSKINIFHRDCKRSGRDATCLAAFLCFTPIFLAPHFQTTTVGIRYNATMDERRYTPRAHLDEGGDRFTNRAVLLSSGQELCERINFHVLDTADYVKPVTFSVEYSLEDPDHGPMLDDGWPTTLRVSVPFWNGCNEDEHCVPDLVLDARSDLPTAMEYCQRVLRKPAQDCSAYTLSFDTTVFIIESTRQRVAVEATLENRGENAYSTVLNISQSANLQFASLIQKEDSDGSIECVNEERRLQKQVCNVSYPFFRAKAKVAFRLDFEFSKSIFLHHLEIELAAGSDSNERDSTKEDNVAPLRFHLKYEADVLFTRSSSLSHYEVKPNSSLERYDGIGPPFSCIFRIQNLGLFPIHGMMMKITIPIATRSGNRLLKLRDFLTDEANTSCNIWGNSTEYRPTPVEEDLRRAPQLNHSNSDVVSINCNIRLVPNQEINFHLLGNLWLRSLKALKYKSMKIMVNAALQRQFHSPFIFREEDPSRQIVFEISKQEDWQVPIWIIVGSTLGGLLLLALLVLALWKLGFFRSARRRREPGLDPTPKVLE
T1 sequence (P05556 21-798): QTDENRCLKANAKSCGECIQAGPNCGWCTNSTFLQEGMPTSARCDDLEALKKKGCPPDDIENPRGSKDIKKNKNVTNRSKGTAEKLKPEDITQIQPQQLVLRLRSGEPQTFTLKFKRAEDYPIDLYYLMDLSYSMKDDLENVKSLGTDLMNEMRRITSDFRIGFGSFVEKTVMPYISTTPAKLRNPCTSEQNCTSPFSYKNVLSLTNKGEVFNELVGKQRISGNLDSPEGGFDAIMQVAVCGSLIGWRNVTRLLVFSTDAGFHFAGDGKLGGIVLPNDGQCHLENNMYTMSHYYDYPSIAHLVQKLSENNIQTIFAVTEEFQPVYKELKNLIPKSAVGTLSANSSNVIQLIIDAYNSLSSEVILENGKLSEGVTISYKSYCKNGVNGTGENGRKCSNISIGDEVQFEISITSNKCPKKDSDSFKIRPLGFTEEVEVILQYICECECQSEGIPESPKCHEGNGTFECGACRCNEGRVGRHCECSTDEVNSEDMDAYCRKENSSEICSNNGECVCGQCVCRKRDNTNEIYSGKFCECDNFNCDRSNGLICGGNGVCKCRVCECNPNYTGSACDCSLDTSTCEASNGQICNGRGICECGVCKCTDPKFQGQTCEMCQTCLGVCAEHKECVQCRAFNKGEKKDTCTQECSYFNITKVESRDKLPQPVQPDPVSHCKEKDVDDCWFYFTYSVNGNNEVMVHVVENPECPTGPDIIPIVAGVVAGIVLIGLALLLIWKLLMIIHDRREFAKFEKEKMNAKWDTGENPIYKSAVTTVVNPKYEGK
Method: 100 nM irisin was incubated with 5 nM indicated his-tag integrins followed by immunoprecipitation using Ni-NTA agaroses. Precipitated integrins and co-precipitated irisin were analyzed by immunoblot analysis. […] HEK293T cells were seeded and incubated until 50% cell density. The cells were transfected with 0.1 μg plasmids of indicated integrins. After 48 hours, the cells were re-split to indicated dose of vitronectin-coated plates. Cells were incubated with culture medium for 3 hours. Cells were lysed to detect the indicated protein level using immunoblot analysis. FIG. 15C and FIG. 15D show the immunoblot data. Cells were treated and analyzed as FIG. 14B except using plasmids encoding integrin α5/β1 or integrin α11/β1 (FIG. 15C) integrin αV/β1(FIG. 15D).
HEK293T cells were set up for experiments at 1×10^5 cells per well in 6 well plate. On day 2, cells were transiently transfected with the indicated plasmids with FuGENE® 6 reagent (Roche Applied Science) according to the manufacturer's protocol. […]
Cells were harvested in RIPA buffer containing protease-inhibitor cocktail and phosphataseinhibitor cocktail. […] Protein levels were analyzed via western blot using indicated antibody. […] Protein levels were analyzed using western blot against indicated antibody.

B1: irisin: secreted cleaved form of FNDC5; recombinant human/mouse irisin with C-terminal his tag produced in HEK293 cells (protein)
chain: DSPSAPVNVTVRHLKANSAVVSWDVLEDEVVIGFAISQQKKDVRMLRFIQEVNTTTRSCALWDLEEDTEYIVHVQAISIQGQSPASEPVLFKTPREAEKMASKNKDEVTMKE
modifications: left off: small tags and cut ends
notes: secreted cleaved form of FNDC5; recombinant human/mouse irisin with C-terminal his tag produced in HEK293 cells
Ucp1 protein level in whole tissue (western blot) (inguinal fat; mice, irisin injections): also increased
increase of mRNA level of Ucp1 (inguinal fat; wild-type mice, 1 mg/kg irisin every other day for 6 days): more than 2 fold
phosphorylation of FAK upon irisin treatment (integrin α11/β1): little phosphorylation of FAK above background
